Test system: peptide library, one residue held at a place counted from the Y acceptor
Assay: relative phosphorylation of the sub-library (ratio to the mean residue at this position); higher = residue favoured
How it was run: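 In 384-well plates, purified recombinant kinases were incubated for 90 min with 50 μM ATP containing γ-32P-ATP and biotinylated Tyr-centred peptide libraries, each mixture fixing one residue at a single position between −5 and +5. After capture on streptavidin membranes and rinsing, peptides were quantified by phosphorimaging with ImageQuant. Per-position intensities were scaled to the sum of the 18 (Ser/Thr-free library: 16) randomized residues, then multiplied by that number.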

TEC, construct: Full length, human, sequence (P42680 whole entry, looked up): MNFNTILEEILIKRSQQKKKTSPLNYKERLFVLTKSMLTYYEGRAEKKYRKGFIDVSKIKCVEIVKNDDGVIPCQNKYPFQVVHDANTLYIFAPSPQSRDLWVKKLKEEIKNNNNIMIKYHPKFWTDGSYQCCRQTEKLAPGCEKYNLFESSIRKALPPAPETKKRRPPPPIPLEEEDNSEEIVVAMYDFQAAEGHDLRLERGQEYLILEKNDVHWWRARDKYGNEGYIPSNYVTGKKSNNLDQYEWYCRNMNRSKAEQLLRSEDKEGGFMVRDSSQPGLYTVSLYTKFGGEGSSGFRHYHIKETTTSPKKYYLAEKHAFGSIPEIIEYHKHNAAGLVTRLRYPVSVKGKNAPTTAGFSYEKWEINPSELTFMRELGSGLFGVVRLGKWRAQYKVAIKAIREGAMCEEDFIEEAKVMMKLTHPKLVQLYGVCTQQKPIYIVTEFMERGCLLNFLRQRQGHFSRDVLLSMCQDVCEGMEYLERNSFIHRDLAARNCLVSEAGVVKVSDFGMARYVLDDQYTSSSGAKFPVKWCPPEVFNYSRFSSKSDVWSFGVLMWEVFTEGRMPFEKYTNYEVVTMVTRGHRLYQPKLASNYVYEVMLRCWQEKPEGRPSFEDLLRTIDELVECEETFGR
RET, construct: aa658-end, human, sequence (P07949 658-1114, looked up): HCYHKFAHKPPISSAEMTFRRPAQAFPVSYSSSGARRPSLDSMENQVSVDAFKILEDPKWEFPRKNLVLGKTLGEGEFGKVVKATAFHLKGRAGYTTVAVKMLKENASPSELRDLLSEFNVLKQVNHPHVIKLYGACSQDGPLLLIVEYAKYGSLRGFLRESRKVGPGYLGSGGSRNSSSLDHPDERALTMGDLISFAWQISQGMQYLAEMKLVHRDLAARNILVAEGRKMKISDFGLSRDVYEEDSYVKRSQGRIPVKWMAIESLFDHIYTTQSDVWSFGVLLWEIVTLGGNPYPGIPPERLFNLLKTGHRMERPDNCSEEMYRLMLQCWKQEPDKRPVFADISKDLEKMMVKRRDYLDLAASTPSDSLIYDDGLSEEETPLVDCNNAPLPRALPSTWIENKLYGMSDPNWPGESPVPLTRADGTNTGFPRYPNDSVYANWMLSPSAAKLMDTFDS

RET, construct: aa658-end, human (from UniProt P07949)
relative phosphorylation
Settings	at +1	at +2	at +3	at +4	at +5	at -1	at -2	at -3	at -4	at -5
A fixed	0.957	0.877	0.845	0.859	0.923	0.865	0.967	0.857	1.08	1.05
D fixed	0.306	0.726	0.705	0.87	0.823	1.29	0.865	1.04	1.02	0.925
E fixed	0.415	0.976	0.636	0.831	0.783	1.2	0.885	1.43	1.1	0.86
F fixed	1.49	1.1	1.12	1.14	0.844	1.02	0.624	0.934	0.881	0.91
G fixed	0.541	0.643	0.88	1.05	1.44	0.5	1.34	1.18	1.27	1.23
H fixed	1.37	0.942	1.17	1.1	1.14	1.4	1.04	1.11	1	1.04
I fixed	1.59	0.802	1.28	0.73	0.765	1.46	0.674	0.606	0.749	0.786
K fixed	0.629	0.939	0.582	1.12	1.17	0.656	1.3	1.11	1.26	1.33
L fixed	1.41	1.07	1.09	0.83	0.76	1.12	0.768	0.748	0.888	0.872
M fixed	1.29	0.996	1.2	1.01	0.972	0.76	0.712	0.769	0.931	0.875
N fixed	0.513	1.21	0.865	1.08	1.09	1.29	1.2	1.14	0.859	1.05
P fixed	0.494	0.965	1.24	1.17	1.54	0.896	1.19	1.15	1.23	1.1
Q fixed	1.06	1.11	1.01	1.22	1.05	1	1.26	0.964	1.16	1.05
R fixed	1.02	1.37	0.818	1.34	1.29	0.672	1.52	1.3	1.31	1.42
S fixed	0.889	0.97	0.884	0.888	1	0.695	1.24	1.09	0.89	0.95
T fixed	0.943	1.01	0.962	0.874	0.952	0.984	1.04	1.04	0.757	0.892
V fixed	1.42	0.924	1.15	0.775	0.635	1.12	0.708	0.646	0.735	0.773
W fixed	1.66	1.37	1.56	1.11	0.819	1.07	0.668	0.879	0.883	0.882
pThr fixed	0.469	1.04	0.392	0.595	0.607	0.878	0.723	1.02	0.966	0.876
pTyr fixed	1.17	1.45	0.459	0.586	0.622	1.46	0.933	1.85	1.23	1.15

TEC, construct: Full length, human (from UniProt P42680)
relative phosphorylation
Settings	at +1	at +2	at +3	at +4	at +5	at -1	at -2	at -3	at -4	at -5
A fixed	1.7	0.954	0.562	0.694	0.847	0.4	1.06	0.921	1.1	0.884
D fixed	0.761	0.712	0.353	0.726	0.87	0.463	1.44	1.42	1.41	1.26
E fixed	2.13	0.838	0.301	0.674	0.934	0.454	1.82	1.65	1.51	1.06
F fixed	0.677	1.07	1.65	1.12	1.11	1.33	0.585	1.32	0.973	0.94
G fixed	0.565	0.515	0.568	0.821	0.921	0.263	1.11	0.917	1.03	1.02
H fixed	0.582	1.04	1.2	1.55	1.24	0.555	1.04	0.944	0.967	1.13
I fixed	1.21	0.776	1.75	0.789	0.637	5.08	0.736	0.746	0.857	0.79
K fixed	0.295	0.932	0.78	1.23	1.23	0.279	0.915	0.682	0.924	1.06
L fixed	0.935	0.918	1.4	0.889	0.838	2.88	0.9	0.814	0.955	0.921
M fixed	1.58	0.86	1.25	0.98	0.956	1.26	0.806	0.932	0.945	1.01
N fixed	0.466	1.2	0.692	0.896	1.01	0.433	1.19	1.25	1.01	1.21
P fixed	0.143	0.67	0.721	0.986	1.07	0.38	1.13	0.962	0.989	0.949
Q fixed	1.33	1.07	0.643	1.05	1.03	0.441	1.22	0.967	1.28	1.2
R fixed	0.413	1.66	1.32	1.61	1.36	0.274	0.882	0.773	0.891	1.15
S fixed	1.22	1.31	0.67	0.871	0.997	0.409	0.942	1.1	0.771	0.919
T fixed	1.05	1.13	0.702	0.817	0.924	0.801	0.856	0.78	0.626	0.754
V fixed	1.57	1.03	1.26	0.785	0.656	1.7	0.782	0.775	0.785	0.887
W fixed	1.38	1.31	2.18	1.51	1.37	0.596	0.589	1.05	0.981	0.856
pThr fixed	1.91	1.66	0.298	0.525	0.563	0.786	1.26	0.929	1.03	0.999
pTyr fixed	1.08	1.3	0.4	0.683	0.779	2.06	0.955	1.08	1.02	0.894

Reference: the supplement of paper PMC11136658
